Experimental data reported in the supplement of paper PMC9170038.

Tested on: K4 kissing-loop RNA reporter
Assay: apparent KD of K4 kissing-loop reporter; higher = weaker reporter binding
Conditions: Eterna round: R107
Procedure: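 RNA-MaP round R107: designed RNA switches with theophylline, tryptophan, arginine or FMN aptamers are transcribed on-chip within common flanks. They are titrated with a labelled K4 kissing-loop RNA reporter in RNA-MaP buffer (100 mM Tris pH 7.5, 80 mM KCl, 4 mM MgCl2), without ligand or with the indicated ligand. Median apparent KD per design.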

[1] = input ligand: theophylline 20 uM
[2] = input ligand: tryptophan 2.4 mM
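Further: bound reporter read as fluorescence of individual clusters on recovered sequencing chips by microscopy, with normalized cluster intensities fitted with a binding model.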

Sequence	apparent KD of K4 kissing-loop reporter (input ligand: FMN 200 uM)	apparent KD of K4 kissing-loop reporter (input ligand: arginine 13.2 mM)	apparent KD of K4 kissing-loop reporter (input ligand: none)	apparent KD of K4 kissing-loop reporter [1]	apparent KD of K4 kissing-loop reporter [2]
AUUCAUUUCAGAGGAUAUCGAAGGAGAGUGAUGUUCUCCCAUAGCCCAGUGAUGUUGGAAGCUAUUCGAGAAGGCUGUGGGUGGA [Same State FMN B GF 26]	178 nM	270 nM	271 nM	222 nM	216 nM
UUUUACGAUACGGCCGCCACUGGUGUUAUAUAUUUGCAGGAGUGAUGUUCGUGCGAUCAUUCCAUCAGGACCGGGUAUACGCGGC [theeternabot_sameState_KL_Trp_B_43]	265 nM	209 nM	318 nM	765 nM	507 nM
GCGGCCCAGACGGAUACCAGUGACCCGCUGGGAACCGCGGGCCCAGAGUGAUGUUCGGGACACCCUUGGCAGCCGCCUGGGUCGC [#2 Same State - Theophylline B Attempt #19 (HarryS)]	732 nM	293 nM	491 nM	606 nM	448 nM
GGGAGUAGUGCGGCCGCCACUGAGAAAGAAGAAGAAUAUAGUGAUGUUAUAUAGGAAAUAAAGAACAGGACCGGGCAUUAGAUUU [SSTRyptB.N]	269 nM	216 nM	244 nM	210 nM	149 nM
UUUCUACCGGGAAGGAGCGUGAAUGAUAAUGGAUAUAGUGAUGUUAUAUAUACGAACGAAUCGCAGGUAGGUCGCCCGGAUCCCU [SSArgB.V]	492 nM	594 nM	593 nM	549 nM	496 nM
UUUUAAUAAGAGGAUACCAGUACAAAUAAAGUACAUUAAUAGUAGAGUGAUGUUCUAAAGUACCCUUGGCAGCUUAGAGUAAGUU [ExTheophylB.B]	123 nM	242 nM	156 nM	260 nM	99.8 nM
AGACUACCACACUGUCAAUAGACAGUGGACUAGGAUAUGCUGAUAAGCAGAAGGAGUGAUGUUCCGAGGUAGUCAAUAAAAUAAU [FmnAX 13 G28+G66]	304 nM	309 nM	315 nM	401 nM	316 nM
UAUUGGAGUGAUGUUCCAUUAACGAUCCUACGAGGACCGGUACGGCCGCCACUCGAAAUGCAGUGAUGUUGCAGCCAGCCGUAAA [Exclusion Trptophan A GF 7]	174 nM	167 nM	183 nM	188 nM	162 nM
UUGAGGGAGAAUUAUAGUGAUGUUAUAAAGAAGGAUAUCCAAAGAAGGAGAAGGUCUAAGAGGGAAGGGAGGGAGGGAGGGAGGG [ExFMNA.C]	380 nM	131 nM	281 nM	97.1 nM	202 nM
CCAUCGCUAUUCGAUACCAGCUACUUAGUGAUGUUAAGUUAAAAUUAAUUGUAGAUUAAAAGCCCUUGGCAGCGAAUAGUGAUGG [Theophylline B K4 20]	159 nM	141 nM	154 nM	119 nM	152 nM
GGAUCCACCAGUGAUGUUGGAGAAAACUUCAAGGAUAUGACGAAAGUCAGAAGGUGGUAGACUGGACAAAGUCCGGUAGGAUCCA [FmnA10 U29+A78]	604 nM	395 nM	490 nM	570 nM	528 nM
UACGUUUUAUUAACACUAAAUACAACUGAAGGAGCGACAAUAAAGUCAGGUAGGUCGCAGAAUUAAUGAGUGAUGUUCAUUUUUA [JR_ExcArginiA_Sub015]	56.2 nM	117 nM	65.9 nM	92 nM	48.1 nM
UCCUAGGCUCGAAAGAGCCUAGGAUGGACUCAGGAUAUCCGGAAACGGAGAAGGGAGUCACUAGUGAUGUUAGGGACUCCCUAAA	87.5 nM	79 nM	101 nM	70.3 nM	87.5 nM
UGUCAUUGGUCGGCCGCCACUUCAUAAAGAGUGAUGUUCUGAAAGACGGAUCGAAAGAUCUGUCGGAGGACCGGGACCGAUGACU [FiskerMod 2 - Jieux - Same State - Tryptophan B]	1450 nM	587 nM	1440 nM	686 nM	397 nM
UGAUACCAGACGGCCGCCACUUCCGUAAGUCAAAGACUUACCAAGAGAAUCGUCCAGUGAUGUUGGAGGACCGGGUCUGGUAUCU [FiskerMod 7 - Jieux - Exclusion - Tryptophan B]	931 nM	654 nM	979 nM	849 nM	872 nM
GGGUGUAGUGCGGCCGCCACUGUGAAAGUAGAAGAAUAUAGUGAUGUUAUAUAGGAUUAAAAGAAUAGGACCGGGCAUUAGACUU [#23 K4 Tryptophan B Same State]	214 nM	236 nM	284 nM	248 nM	182 nM
UAAGAACAGUCGGCCGCCACUUGAACUACAGAAGUAGGUAUAGCACCGUGAGUGAUGUUCACUGAAAGGACCGGGACUUGCUCCG [theeternabot_sameState_KL_Trp_B_30]	476 nM	310 nM	399 nM	430 nM	574 nM
